The results in this text go back to patent US12528864 (GlaxoSmithKline, dated 2026).

B1: 42Y073-86F08-4 (antibody, V domains shown)
VH: QVQLVQSGAEVKKPGSSVKVSCKASGGTFSEYAIHWVRQAPGQGLEWMGNIIPIFGTAGYAQKFQGRVTITADESTSTAYMELSSLRSEDTAVYYCARGAGYYGDKDPMDVWGQGTTVTVSS
VL: DIQLTQSPSSLSASVGDRVTITCRASQSISSYLNWYQQKPGKAPKLLIYAASSLQSGVPSRFSGSGSGTDFTLTISSLQPEDFATYYCQQVLHTITFGGGTKVEIK
notes: Fully human antibody
B2: 42Y073-86F08-8 (antibody, V domains shown)
VH: B1 VH with S30W, E31L, H35S, N50G, I54Q, F55L, G59N
VL: B1 VL
notes: Fully human antibody; also called 42Y073-88F08-8
B3: 42Y073-86F08-17 (antibody, V domains shown)
VH: B1 VH with S30R, H35S, N50G, I54V, G59N
VL: B1 VL
notes: Fully human antibody; also called 42Y073-88F08-17
B4: 42Y073-86F08-22 (antibody, V domains shown)
VH: B1 VH with S16A, G27Y, S30D, E31S, I34M, N50G, G59W
VL: B1 VL
notes: Fully human antibody
B5: 42Y073-86F08-47 (antibody, V domains shown)
VH: B1 VH with E31Q, N50V, T57K, G59N
VL: B1 VL
notes: Fully human antibody
B6: 42Y073-2B04-46 (antibody, V domains shown)
VH: QVQLQQWGAGLLKPSETLSLTCAVYGGSFRRYYWSWIRQPPGKGLEWIGEIDGWGSTNYNPSLKSRVTISVDTSKNQFSLKLSSVTAADTAVYYCARGGSVDFWSGSDYYYYMDVWGKGATVTVSS
VL: EIVLTQSPATLSLSPGERATLSCRASQSVSSYLAWYQQKPGQAPRLLIYDASKRATGIPARFSGSGSGTDFTLTISSLEPEDFAVYYCQQLDNWPITFGGGTKVEIK
notes: Fully human antibody; also called 42Y073-2804-46
B7: 42Y073-86F04-88 (antibody, V domains shown)
VH: QVQLVQSGAEVKKPGSSVKVSCKASGGTFSSSAISWVRQAPGQGLEWMGGIIPIFGRANYAQKFQGRVTITADESTSTAYMELSSLRSEDTAVYYCARLLGESGMDVWGQGTTVTVSS
VL: DIQMTQSPSSLSASVGDRVTITCRASQSISSYLNWYQQKPGKAPKLLIYAASSLQSGVPSRFSGSGSGTDFTLTISSLQPEDFATYYCQQPYFSPPTFGGGTKVEIK
notes: Fully human antibody

Changes are numbered by the printed parent chain.

Usually EC50 stands for the midpoint of the concentration-response curve. Broadly, the IC50 is the concentration needed to halve the response being measured.

In the first assay the target is T1, human CD96v2 expressed on cells (CHO cells; transiently transfected HEK cells) (human, UniProt P40200-2 22-569).
T1 construct: whole, on cells; the cell is named under assay; also called CHO-huCD96; hCD96v2
T1 sequence (looked up): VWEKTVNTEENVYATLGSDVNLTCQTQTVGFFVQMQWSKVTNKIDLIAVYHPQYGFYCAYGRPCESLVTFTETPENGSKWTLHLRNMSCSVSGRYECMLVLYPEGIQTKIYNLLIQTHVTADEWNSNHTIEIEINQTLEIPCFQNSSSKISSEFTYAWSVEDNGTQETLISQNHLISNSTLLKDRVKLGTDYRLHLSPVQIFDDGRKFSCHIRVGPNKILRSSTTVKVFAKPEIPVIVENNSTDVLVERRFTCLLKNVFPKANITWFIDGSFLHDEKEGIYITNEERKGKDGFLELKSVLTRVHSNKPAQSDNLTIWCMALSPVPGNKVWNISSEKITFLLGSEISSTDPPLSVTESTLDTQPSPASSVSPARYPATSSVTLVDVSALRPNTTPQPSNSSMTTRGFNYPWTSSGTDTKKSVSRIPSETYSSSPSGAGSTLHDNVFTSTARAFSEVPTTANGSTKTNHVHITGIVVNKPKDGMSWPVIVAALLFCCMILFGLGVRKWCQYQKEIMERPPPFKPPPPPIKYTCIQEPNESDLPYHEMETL
Put plainly: flow cytometry on CHO cells expressing human CD96v2. On the technique in general: In flow cytometry, cells or beads pass a laser one at a time.
For the molecule B1, the EC50 was 40 pM.
In the case of B2, the EC50 was found to be 170 pM.
Same read-out and setting: the same measure for B3: 100 pM; for B4: 30 pM; for B5: 50 pM.
Still for that read-out and setting: next, B6: 1060 pM; B7: 50 pM.

In the next assay the target is T2, cynomolgus monkey CD96v2 expressed on cells (CHO cells; transiently transfected HEK cells) (cynomolgus monkey, UniProt A0A2K5TWV6 22-569).
T2 construct: the cell is named under assay; also called CHO-cyCD96; Cyno CD96v2
T2 sequence: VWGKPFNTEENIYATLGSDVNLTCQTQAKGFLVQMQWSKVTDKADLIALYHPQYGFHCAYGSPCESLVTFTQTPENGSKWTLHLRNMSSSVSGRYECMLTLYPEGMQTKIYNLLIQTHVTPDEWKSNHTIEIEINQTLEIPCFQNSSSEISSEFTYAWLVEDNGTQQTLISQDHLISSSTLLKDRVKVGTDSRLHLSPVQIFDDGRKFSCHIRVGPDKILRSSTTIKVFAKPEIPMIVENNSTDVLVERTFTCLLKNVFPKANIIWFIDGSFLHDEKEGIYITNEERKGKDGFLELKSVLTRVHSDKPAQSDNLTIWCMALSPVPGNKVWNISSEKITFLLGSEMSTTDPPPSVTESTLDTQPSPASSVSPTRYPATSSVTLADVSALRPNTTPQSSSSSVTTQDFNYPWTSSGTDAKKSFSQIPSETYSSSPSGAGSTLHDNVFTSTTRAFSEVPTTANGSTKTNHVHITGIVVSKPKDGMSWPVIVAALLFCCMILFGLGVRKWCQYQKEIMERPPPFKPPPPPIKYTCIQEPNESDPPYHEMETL
Put plainly: flow cytometry on CHO cells expressing cynomolgus CD96v2.
For B1, the EC50 amounted to 70 pM.
In turn, B2 gave an EC50 of 30 pM.
Molecule B3 gave an EC50 of 30 pM.
Take B4: a half-maximal effect (EC50) was put at 90 pM.
B5 returned an EC50 of 60 pM.
Still for that read-out and setting: the same measure for B6: 40 pM.
Still for that read-out and setting: the same measure for B7: 160 pM.

For the next assay, the target named is T1, human CD96v2 expressed on cells (CHO …). Kind of assay: flow cytometry, inhibition of human CD155-Fc-AF647 binding to CHO cells expressing human CD96v2; competitor CD155-Fc.
B1 yielded an IC50 of 380 pM.
In turn, B2 gave an IC50 of 930 pM.
On the same count and under the same terms, the same measure for B3: 520 pM; for B4: 410 pM.
B5: the IC50 amounted to 170 pM.
Molecule B6 displayed an IC50 of 400 pM.
For B7, the IC50 was found to be 210 pM.
